Test results as given in patent publication US20220281976A1.

Assays:
[1] = molecular target: human CD33 (human) (UniProt P20138); test: flow cytometry, human primary T cells
[2] = molecular target: human CD33 (human) (UniProt P20138); test: flow cytometry, human primary monocytes
[3] = molecular target: human CD33 (human) (UniProt P20138); test: flow cytometry, human primary macrophages
[4] = molecular target: human CD33 (human) (UniProt P20138); test: flow cytometry, human primary dendritic cells

Chain of human CD33 (human) (P20138 18-364): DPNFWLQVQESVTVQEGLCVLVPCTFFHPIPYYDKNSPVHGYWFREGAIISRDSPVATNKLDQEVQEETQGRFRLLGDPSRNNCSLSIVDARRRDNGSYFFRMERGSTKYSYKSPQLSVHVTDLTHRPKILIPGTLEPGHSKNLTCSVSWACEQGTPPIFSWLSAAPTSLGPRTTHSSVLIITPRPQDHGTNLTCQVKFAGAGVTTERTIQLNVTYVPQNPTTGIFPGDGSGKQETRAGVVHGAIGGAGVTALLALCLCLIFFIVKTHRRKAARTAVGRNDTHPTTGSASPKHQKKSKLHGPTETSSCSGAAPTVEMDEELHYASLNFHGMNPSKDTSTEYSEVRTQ

T cell MFI [1]: 42.9 | Monocyte MFI [2]: 43.2 | Macrophage MFI [3]: 451 | DC MFI [4]: 178
Substance: isotype control antibody
